From the supplement of paper PMC10567573

B1: MTMR15 (parent)
chain: FSPDFTLRNTLKSTSEDSLVKQEC

Variants of: B1
Test: protein stability index of a GFP-peptide fusion (GPS, HEK-293T) (PSI 1-6); higher = more stable
Settings: c terminus: a fixed tail appended
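Note: lentivirally expressed fusions sorted by FACS into six bins by GFP to DsRed ratio, PSI derived from sequencing read proportions per bin multiplied by bin number.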

First: FSPDFTLRNTLKSTSESSLVKQEC
Second: FSPDFTLRNTLKSTSEGSLVKQEC
The protein stability index of the first is lower: 1.45 for the first, 2.03 for the second.

Compared with FSPDFTLRNTLKSTSEHSLVKQEC, FSPDFTLRNTLKSTSEWSLVKQEC is higher in protein stability index: 2.34 for the first, 2.6 for the second.

Compared with FSPDFTLRNTLKSTSEPSLVKQEC, FSPDFTLRNTLKSTSEQSLVKQEC is higher in protein stability index: 2.08 for the first, 2.37 for the second.

Compared with FSPDFTLRNTLKSTSEFSLVKQEC, FSPDFTLRNTLKSTSETSLVKQEC is lower in protein stability index: 2.8 for the first, 2.22 for the second.

Going from FSPDFTLRNTLKSTSEKSLVKQEC to FSPDFTLRNTLKSTSEESLVKQEC, the protein stability index rises from 1.69 to 2.12.

Compared with FSPDFTLRNTLKSTSEVSLVKQEC, FSPDFTLRNTLKSTSEYSLVKQEC is higher in protein stability index: 2.06 for the first, 2.11 for the second.

First: FSPDFTLRNTLKSTSECSLVKQEC
Second: FSPDFTLRNTLKSTSELSLVKQEC
The protein stability index of the first is lower: 1.47 for the first, 2.36 for the second.

Compared with FSPDFTLRNTLKSTSEISLVKQEC, FSPDFTLRNTLKSTSEMSLVKQEC is lower in protein stability index: 2.58 for the first, 2.07 for the second.

Going from FSPDFTLRNTLKSTSERSLVKQEC to FSPDFTLRNTLKSTSEASLVKQEC, the protein stability index rises from 1.61 to 1.89.

Going from FSPDFTLRNTLKSTSENSLVKQEC to FSPDFTLRNTKKSTSEDSLVKQEC, the protein stability index rises from 1.8 to 2.

Going from FSPDFTLRNTWKSTSEDSLVKQEC to FSPDFTLRNTPKSTSEDSLVKQEC, the protein stability index rises from 1.81 to 2.11.

Compared with FSPDFTLRNTMKSTSEDSLVKQEC, FSPDFTLRNTEKSTSEDSLVKQEC is lower in protein stability index: 2.31 for the first, 2.25 for the second.

Compared with FSPDFTLRNTHKSTSEDSLVKQEC, FSPDFTLRNTYKSTSEDSLVKQEC is lower in protein stability index: 1.76 for the first, 1.75 for the second.

Compared with FSPDFTLRNTIKSTSEDSLVKQEC, FSPDFTLRNTGKSTSEDSLVKQEC is lower in protein stability index: 2.83 for the first, 2.11 for the second.

First: FSPDFTLRNTVKSTSEDSLVKQEC
Second: FSPDFTLRNTQKSTSEDSLVKQEC
The protein stability index of the first is higher: 2.26 for the first, 2.06 for the second.

Compared with FSPDFTLRNTCKSTSEDSLVKQEC, FSPDFTLRNTAKSTSEDSLVKQEC is lower in protein stability index: 2.42 for the first, 1.57 for the second.

Going from FSPDFTLRNTDKSTSEDSLVKQEC to FSPDFTLRNTNKSTSEDSLVKQEC, the protein stability index falls from 2.25 to 1.94.

Compared with FSPDFTLRNTFKSTSEDSLVKQEC, FSPDFTLRNTTKSTSEDSLVKQEC is lower in protein stability index: 2.47 for the first, 1.81 for the second.

Compared with FSPDFTLRNTRKSTSEDSLVKQEC, FSPDFTLRNTSKSTSEDSLVKQEC is higher in protein stability index: 1.81 for the first, 2.04 for the second.

Going from FSPDFTLRNTLKSTSRDSLVKQEC to FSPDFTLRNTLKSTSPDSLVKQEC, the protein stability index rises from 1.76 to 2.38.

First: FSPDFTLRNTLKSTSQDSLVKQEC
Second: FSPDFTLRNTLKSTSSDSLVKQEC
The protein stability index of the first is higher: 2.41 for the first, 2.1 for the second.

First: FSPDFTLRNTLKSTSCDSLVKQEC
Second: FSPDFTLRNTLKSTSLDSLVKQEC
The protein stability index of the first is higher: 1.98 for the first, 1.75 for the second.

First: FSPDFTLRNTLKSTSADSLVKQEC
Second: FSPDFTLRNTLKSTSMDSLVKQEC
The protein stability index of the first is lower: 1.67 for the first, 2.29 for the second.

Going from FSPDFTLRNTLKSTSNDSLVKQEC to FSPDFTLRNTLKSTSFDSLVKQEC, the protein stability index rises from 1.93 to 2.48.

Compared with FSPDFTLRNTLKSTSGDSLVKQEC, FSPDFTLRNTLKSTSTDSLVKQEC is lower in protein stability index: 1.93 for the first, 1.57 for the second.

First: FSPDFTLRNTLKSTSIDSLVKQEC
Second: FSPDFTLRNTLKSTSWDSLVKQEC
The protein stability index of the first is lower: 1.91 for the first, 2.38 for the second.

Compared with FSPDFTLRNTLKSTSYDSLVKQEC, FSPDFTLRNTLKSTSDDSLVKQEC is higher in protein stability index: 1.83 for the first, 2.54 for the second.

Going from FSPDFTLRNTLKSTSVDSLVKQEC to FSPDFTLRNTLKSTSHDSLVKQEC, the protein stability index falls from 2.68 to 2.25.

Going from FSPDFTLRNTLKSTSKDSLVKQEC to FSPDFTLRNGLKSTSEDSLVKQEC, the protein stability index rises from 1.75 to 2.03.

Going from FSPDFTLRNSLKSTSEDSLVKQEC to FSPDFTLRNDLKSTSEDSLVKQEC, the protein stability index rises from 1.82 to 1.99.

First: FSPDFTLRNHLKSTSEDSLVKQEC
Second: FSPDFTLRNKLKSTSEDSLVKQEC
The protein stability index of the first is higher: 3.86 for the first, 1.72 for the second.

First: FSPDFTLRNELKSTSEDSLVKQEC
Second: FSPDFTLRNALKSTSEDSLVKQEC
The protein stability index of the first is higher: 2.37 for the first, 2.16 for the second.

Compared with FSPDFTLRNRLKSTSEDSLVKQEC, FSPDFTLRNLLKSTSEDSLVKQEC is higher in protein stability index: 2.15 for the first, 2.61 for the second.

Going from FSPDFTLRNCLKSTSEDSLVKQEC to FSPDFTLRNNLKSTSEDSLVKQEC, the protein stability index falls from 2.14 to 1.87.

First: FSPDFTLRNYLKSTSEDSLVKQEC
Second: FSPDFTLRNMLKSTSEDSLVKQEC
The protein stability index of the first is higher: 2.27 for the first, 2.11 for the second.

Going from FSPDFTLRNPLKSTSEDSLVKQEC to FSPDFTLRNILKSTSEDSLVKQEC, the protein stability index rises from 1.7 to 2.64.

First: FSPDFTLRNFLKSTSEDSLVKQEC
Second: FSPDFTLRNWLKSTSEDSLVKQEC
The protein stability index of the first is higher: 2.7 for the first, 2.32 for the second.

Going from FSPDFTLRNQLKSTSEDSLVKQEC to FSPDFTLRNVLKSTSEDSLVKQEC, the protein stability index rises from 1.59 to 1.76.

Compared with FSPDFTLRTTLKSTSEDSLVKQEC, FSPDFTLRWTLKSTSEDSLVKQEC is higher in protein stability index: 2.09 for the first, 2.62 for the second.

Going from FSPDFTLRITLKSTSEDSLVKQEC to FSPDFTLRSTLKSTSEDSLVKQEC, the protein stability index falls from 2.41 to 2.34.

Going from FSPDFTLRQTLKSTSEDSLVKQEC to FSPDFTLRKTLKSTSEDSLVKQEC, the protein stability index rises from 1.96 to 2.11.

Compared with FSPDFTLRMTLKSTSEDSLVKQEC, FSPDFTLRRTLKSTSEDSLVKQEC is lower in protein stability index: 2.64 for the first, 2.62 for the second.

Going from FSPDFTLRPTLKSTSEDSLVKQEC to FSPDFTLRLTLKSTSEDSLVKQEC, the protein stability index rises from 1.82 to 2.02.

First: FSPDFTLRYTLKSTSEDSLVKQEC
Second: FSPDFTLRVTLKSTSEDSLVKQEC
The protein stability index of the first is higher: 3.7 for the first, 2.18 for the second.

Going from FSPDFTLRNTLKVTSEDSLVKQEC to FSPDFTLRNTLKHTSEDSLVKQEC, the protein stability index rises from 1.97 to 2.42.

Compared with FSPDFTLRNTLKTTSEDSLVKQEC, FSPDFTLRNTLKATSEDSLVKQEC is higher in protein stability index: 1.53 for the first, 1.9 for the second.

Going from FSPDFTLRNTLKFTSEDSLVKQEC to FSPDFTLRNTLKRTSEDSLVKQEC, the protein stability index rises from 2.13 to 3.03.
